B1: GpH7-A5/GpH7-B3 variant E269_14T/GpL16-k0 (He Ab) (antibody, human IgG1, kappa)
heavy 1: not shown
heavy 2: not shown
light: DIVMTQSPLSLPVTPGEPASISCQASESLVHSNRNTYLHWYLQKPGQSPQLLIYKVSNRFSGVPDRFSGSGSGTDFTLKISRVEAEDVGVYYCSQNTHVPPTFGQGTKVEIERTVAAPSVFIFPPSDEQLKSGTASVVCLLNNFYPREAKVQWKVDNALQSGNSQESVTEQDSKDSTYSLSSTLTLSKADYEKHKVYACEVTHQGLSSPVTKSFNRGEC
notes: Heterodimerized anti-glypican-3 IgG1; the mutation stands in the GpH7-B3 chain only
B2: GpH7-A5/GpH7-B3 variant E269_16H/GpL16-k0 (He Ab) (antibody, human IgG1, kappa)
heavy 1: not shown
heavy 2: not shown
light: DIVMTQSPLSLPVTPGEPASISCQASESLVHSNRNTYLHWYLQKPGQSPQLLIYKVSNRFSGVPDRFSGSGSGTDFTLKISRVEAEDVGVYYCSQNTHVPPTFGQGTKVEIERTVAAPSVFIFPPSDEQLKSGTASVVCLLNNFYPREAKVQWKVDNALQSGNSQESVTEQDSKDSTYSLSSTLTLSKADYEKHKVYACEVTHQGLSSPVTKSFNRGEC
notes: as for B1
B3: GpH7-A5/GpH7-B3 variant E269_08L/GpL16-k0 (He Ab) (antibody, human IgG1, kappa)
heavy 1: not shown
heavy 2: not shown
light: DIVMTQSPLSLPVTPGEPASISCQASESLVHSNRNTYLHWYLQKPGQSPQLLIYKVSNRFSGVPDRFSGSGSGTDFTLKISRVEAEDVGVYYCSQNTHVPPTFGQGTKVEIERTVAAPSVFIFPPSDEQLKSGTASVVCLLNNFYPREAKVQWKVDNALQSGNSQESVTEQDSKDSTYSLSSTLTLSKADYEKHKVYACEVTHQGLSSPVTKSFNRGEC
notes: as for B1
B4: GpH7-A5/GpH7-B3 variant H268_07I/GpL16-k0 (He Ab) (antibody, human IgG1, kappa)
heavy 1: not shown
heavy 2: not shown
light: DIVMTQSPLSLPVTPGEPASISCQASESLVHSNRNTYLHWYLQKPGQSPQLLIYKVSNRFSGVPDRFSGSGSGTDFTLKISRVEAEDVGVYYCSQNTHVPPTFGQGTKVEIERTVAAPSVFIFPPSDEQLKSGTASVVCLLNNFYPREAKVQWKVDNALQSGNSQESVTEQDSKDSTYSLSSTLTLSKADYEKHKVYACEVTHQGLSSPVTKSFNRGEC
notes: as for B1
B5: GpH7-A5/GpH7-B3 variant E269_15Y/GpL16-k0 (He Ab) (antibody, human IgG1, kappa)
heavy 1: not shown
heavy 2: not shown
light: DIVMTQSPLSLPVTPGEPASISCQASESLVHSNRNTYLHWYLQKPGQSPQLLIYKVSNRFSGVPDRFSGSGSGTDFTLKISRVEAEDVGVYYCSQNTHVPPTFGQGTKVEIERTVAAPSVFIFPPSDEQLKSGTASVVCLLNNFYPREAKVQWKVDNALQSGNSQESVTEQDSKDSTYSLSSTLTLSKADYEKHKVYACEVTHQGLSSPVTKSFNRGEC
notes: as for B1
B6: GpH7-A5/GpH7-B3 variant E269_12R/GpL16-k0 (He Ab) (antibody, human IgG1, kappa)
heavy 1: not shown
heavy 2: not shown
light: DIVMTQSPLSLPVTPGEPASISCQASESLVHSNRNTYLHWYLQKPGQSPQLLIYKVSNRFSGVPDRFSGSGSGTDFTLKISRVEAEDVGVYYCSQNTHVPPTFGQGTKVEIERTVAAPSVFIFPPSDEQLKSGTASVVCLLNNFYPREAKVQWKVDNALQSGNSQESVTEQDSKDSTYSLSSTLTLSKADYEKHKVYACEVTHQGLSSPVTKSFNRGEC
notes: as for B1
B7: GpH7-A5/GpH7-B3 variant E269_13S/GpL16-k0 (He Ab) (antibody, human IgG1, kappa)
heavy 1: not shown
heavy 2: not shown
light: DIVMTQSPLSLPVTPGEPASISCQASESLVHSNRNTYLHWYLQKPGQSPQLLIYKVSNRFSGVPDRFSGSGSGTDFTLKISRVEAEDVGVYYCSQNTHVPPTFGQGTKVEIERTVAAPSVFIFPPSDEQLKSGTASVVCLLNNFYPREAKVQWKVDNALQSGNSQESVTEQDSKDSTYSLSSTLTLSKADYEKHKVYACEVTHQGLSSPVTKSFNRGEC
notes: as for B1
B8: GpH7-A5/GpH7-B3 variant E269_06M/GpL16-k0 (He Ab) (antibody, human IgG1, kappa)
heavy 1: not shown
heavy 2: not shown
light: DIVMTQSPLSLPVTPGEPASISCQASESLVHSNRNTYLHWYLQKPGQSPQLLIYKVSNRFSGVPDRFSGSGSGTDFTLKISRVEAEDVGVYYCSQNTHVPPTFGQGTKVEIERTVAAPSVFIFPPSDEQLKSGTASVVCLLNNFYPREAKVQWKVDNALQSGNSQESVTEQDSKDSTYSLSSTLTLSKADYEKHKVYACEVTHQGLSSPVTKSFNRGEC
notes: as for B1
B9: GpH7-A5/GpH7-B3 variant H268_11K/GpL16-k0 (He Ab) (antibody, human IgG1, kappa)
heavy 1: not shown
heavy 2: not shown
light: DIVMTQSPLSLPVTPGEPASISCQASESLVHSNRNTYLHWYLQKPGQSPQLLIYKVSNRFSGVPDRFSGSGSGTDFTLKISRVEAEDVGVYYCSQNTHVPPTFGQGTKVEIERTVAAPSVFIFPPSDEQLKSGTASVVCLLNNFYPREAKVQWKVDNALQSGNSQESVTEQDSKDSTYSLSSTLTLSKADYEKHKVYACEVTHQGLSSPVTKSFNRGEC
notes: as for B1
B10: GpH7-A5/GpH7-B3 variant H268_14T/GpL16-k0 (He Ab) (antibody, human IgG1, kappa)
heavy 1: not shown
heavy 2: not shown
light: DIVMTQSPLSLPVTPGEPASISCQASESLVHSNRNTYLHWYLQKPGQSPQLLIYKVSNRFSGVPDRFSGSGSGTDFTLKISRVEAEDVGVYYCSQNTHVPPTFGQGTKVEIERTVAAPSVFIFPPSDEQLKSGTASVVCLLNNFYPREAKVQWKVDNALQSGNSQESVTEQDSKDSTYSLSSTLTLSKADYEKHKVYACEVTHQGLSSPVTKSFNRGEC
notes: as for B1

Legend:
[1] = molecular target: T1, FcγRIa extracellular domain with C-terminal His tag (human, UniProt P12314 16-292); assay: SPR (Biacore), antibody captured on antigen-peptide chip, FcγR as analyte; relative binding
T1 construct: extracellular domain; Expressed in FreeStyle293 cells; analyte in the Biacore assay; also called FcgRI; 1a; not shown: His tag at the C terminus
T1 sequence (P12314 16-292): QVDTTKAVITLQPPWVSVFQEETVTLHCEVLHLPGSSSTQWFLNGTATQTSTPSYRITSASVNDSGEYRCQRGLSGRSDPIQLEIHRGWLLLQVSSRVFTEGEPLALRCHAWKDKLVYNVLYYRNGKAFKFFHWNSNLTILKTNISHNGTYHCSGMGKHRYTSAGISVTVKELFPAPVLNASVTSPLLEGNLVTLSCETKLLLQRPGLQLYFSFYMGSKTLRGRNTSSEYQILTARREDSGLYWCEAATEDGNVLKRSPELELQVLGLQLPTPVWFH

[2] = molecular target: T2, FcγRIIb extracellular domain with C-terminal His tag (human, UniProt P31994 43-217); assay: as above
T2 construct: extracellular domain; Expressed in FreeStyle293 cells; analyte in the Biacore assay; also called FcgRIIb; 2b; not shown: His tag at the C terminus
T2 sequence (looked up): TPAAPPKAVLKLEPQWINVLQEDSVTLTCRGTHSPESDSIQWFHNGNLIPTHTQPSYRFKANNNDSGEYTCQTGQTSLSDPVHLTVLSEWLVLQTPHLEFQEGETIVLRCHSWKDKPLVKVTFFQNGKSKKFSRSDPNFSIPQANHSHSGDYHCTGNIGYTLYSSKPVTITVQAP

| Binder | He/Con_1a [1] | He/Con_2b [2] |
| --- | --- | --- |
| B1 | 106 % of GpH7-A5/GpH7-B3/GpL16-k0 (=100) | 50.6 % of GpH7-A5/GpH7-B3/GpL16-k0 (=100) |
| B2 | 106 % of GpH7-A5/GpH7-B3/GpL16-k0 (=100) | 38.5 % of GpH7-A5/GpH7-B3/GpL16-k0 (=100) |
| B3 | 104 % of GpH7-A5/GpH7-B3/GpL16-k0 (=100) | 42.9 % of GpH7-A5/GpH7-B3/GpL16-k0 (=100) |
| B4 | 108 % of GpH7-A5/GpH7-B3/GpL16-k0 (=100) | 88.9 % of GpH7-A5/GpH7-B3/GpL16-k0 (=100) |
| B5 | 106 % of GpH7-A5/GpH7-B3/GpL16-k0 (=100) | 44.7 % of GpH7-A5/GpH7-B3/GpL16-k0 (=100) |
| B6 | 97.1 % of GpH7-A5/GpH7-B3/GpL16-k0 (=100) | 25.2 % of GpH7-A5/GpH7-B3/GpL16-k0 (=100) |
| B7 | 103 % of GpH7-A5/GpH7-B3/GpL16-k0 (=100) | 47.8 % of GpH7-A5/GpH7-B3/GpL16-k0 (=100) |
| B8 | 104 % of GpH7-A5/GpH7-B3/GpL16-k0 (=100) | 46.7 % of GpH7-A5/GpH7-B3/GpL16-k0 (=100) |
| B9 | 106 % of GpH7-A5/GpH7-B3/GpL16-k0 (=100) | 83 % of GpH7-A5/GpH7-B3/GpL16-k0 (=100) |
| B10 | 112 % of GpH7-A5/GpH7-B3/GpL16-k0 (=100) | 86 % of GpH7-A5/GpH7-B3/GpL16-k0 (=100) |

Source: patent US20180155451A1 (published 2018)
